Data reported in US20200148757A1 (KOREA ADVANCED INSTITUTE OF SCIENCE AND TECHNOLOGY, published 2020).

Tests used:
Cetuximab-VEGF-Grab [1] = molecular target: T1, Cetuximab-VEGF-Grab; assay: BLI (BLItz), biotinylated VEGF-A on streptavidin biosensor, 1:1 model
T1 construct: Made in Freestyle293F cells and purified on Protein A; also called Cet-Grab; scFv-Cetuximab-VEGF-Grab
Method: (§1) Thereafter, to measure the dissociation rate (koff), each reaction product was allowed to react in a PBS buffer for 2 minutes. The final dissociation constant was calculated as a ratio of koff/kon. Sensorgrams were analyzed with the global fitting function using a 1:1 binding model (grouped by color and Rmax).

Cetuximab-VEGF-Grab [2] = molecular target: T1, Cetuximab-VEGF-Grab; assay: BLI; EGFR ECD pre-bound to Cet-Grab, then VEGF-A (reverse order); EGFR ECD pre-bound to Cet-Grab
Cetuximab-VEGF-Grab [3] = molecular target: T1, Cetuximab-VEGF-Grab; assay: BLI (BLItz), biotinylated P1GF on streptavidin biosensor, 1:1 model
Method: as §1

Cetuximab-VEGF-Grab [4] = molecular target: T1, Cetuximab-VEGF-Grab; assay: BLI; EGFR ECD pre-bound to Cet-Grab, then P1GF (reverse order); EGFR ECD pre-bound to Cet-Grab

Kd (Cetuximab-VEGF-Grab [1])	Kd (Cetuximab-VEGF-Grab [2])	Kd (Cetuximab-VEGF-Grab [3])	Kd (Cetuximab-VEGF-Grab [4])	Binder
1.04 nM	1.17 nM			human VEGF-A (ligand, also called hVEGF-A) APMAEGGGQNHHEVVKFMDVYQRSYCHPIETLVDIFQEYPDEIEYIFKPSCVPLMRCGGCCNDEGLECVPTEESNITMQIMRIKPHQGQHIGEMSFLQHNKCECRPKKDRARQENPCGPCSERRKHLFVQDPQTCKCSCKNTDSRCKARQLELNERTCRCDKPRR
		1.59 nM	1.11 nM	human P1GF (ligand, also called PlGF; placental growth factor) LPAVPPQQWALSAGNGSSEVEVVPFQEVWGRSYCRALERLVDVVSEYPSEVEHMFSPSCVSLLRCTGCCGDENLHCVPVETANVTMQLLKIRSGDRPSYVELTFSQHVRCECRPLREKMKPERCGDAVPRR
